Substitutions are numbered along the chain they refer to. Where no end group is shown, it is not given here.

Assay [1] concerns the target T1, hAREG: human AREG comprising residues 101-184 of the human pro-AREG with an N-terminal AVI tag (human, biotinylated using BirA enzyme (Avi tag)).
T1 construct: Expressed in E. coli with His6-TRX-3C site-Avi tags and cleaved by HRV 3C protease; also called biotinylated hAREG
T1 chain: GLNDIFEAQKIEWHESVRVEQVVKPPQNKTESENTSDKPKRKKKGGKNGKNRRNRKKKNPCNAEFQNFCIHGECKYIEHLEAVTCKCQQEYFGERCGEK
Description: ELISA screening after phage library selection. In general terms: An ELISA detects its analyte on a solid surface through an enzyme-linked reagent.

In assay [2] the target is T2, mAREG: mouse AREG comprising residues 94-177 of the mouse pro-AREG with an N-terminal AVI tag (mouse, biotinylated using BirA enzyme (Avi tag)).
T2 construct: Expressed in E. coli, cleaved by HRV 3C protease, biotinylated; also called biotinylated mAREG
T2 chain: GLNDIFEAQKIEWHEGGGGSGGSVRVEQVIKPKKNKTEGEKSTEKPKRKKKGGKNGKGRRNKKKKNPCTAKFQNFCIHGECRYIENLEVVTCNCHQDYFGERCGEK
Put plainly: ELISA screening after phage library selection.

Assay [3] concerns the target T3, biotinylated mAREG-EGFd (expressed in E. coli) (mouse, UniProt P31955 135-177, limits assumed, biotinylated).
T3 construct: domain: EGFd; E. coli-expressed biotinylated form used for the library selection; not the mFc fusion m33
T3 chain (looked up): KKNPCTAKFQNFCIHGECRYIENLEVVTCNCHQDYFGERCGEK
Put plainly: phage antibody library selection and ELISA screening. The procedure: (§1) Phage particles expressing scFv on their surface (phage-ScFv) were prepared from the library and used for selection of scFvs against the target antigens including the biotinylated AREG proteins and peptides. The antigens were captured on streptavidin-conjugated magnetic M-280 Dynabeads® (Life Technologies) and then incubated with 5×10¹² phage particles prepared from the library, respectively. For each soluble AREG protein or peptide (antigen, Ab), two rounds of selection were performed. For obtaining cross-reactive human mAbs recognizing both hAREG and mAREG, the hAREG and mAREG were used respectively in the 1st and 2nd rounds of selection. […] Some of the phage-Abs were subsequently converted into human IgG1 (hIgG1) or mouse IgG2a format and analyzed for binding to both hAREG and mAREG using enzyme-linked immunosorbent assay (ELISA) or Biacore.
(§2) About […] of AREG protein or peptide at 100 μL per well were then captured onto the plates by incubation at 30° C. for 1 hour. […] Specific bound phage-scFvs were detected by adding HRP-conjugated mouse anti-M13 antibody (GE Healthcare) and incubated for 30 mins at 30° C. […] The absorbance at 450 nm with the correction wavelength set at 630 nm was read by a microplate reader (Bio-Rad). […]

In assay [4] the target is T4, C18 peptide (human, cysteine pairing not given here; also: biotinylated, position not given here).
T4 construct: Synthetic (Scilight-peptide); also called hAREG-C18; C-terminal peptide
T4 peptide: GSSGKCQQEYFGERCGEK
Put plainly: phage antibody library selection on the C18 peptide and ELISA screening. The procedure:
as §1, §2

Assay [5] concerns the target T1, hAREG: human AREG comprising residues …. Description: hybridoma screening by ELISA on biotinylated hAREG and SPR. The procedure: The supernatant of hybridoma clones were examined for binding activity to biotinylated hAREG by ELISA. Clones with high binding activity were selected and expanded for subsequent subcloning, and the supernatant of the subclones were analyzed by ELISA and SPR. The SPR analysis was performed using Biacore T200 instrument (GE Life Sciences). Diluted supernatant was captured on anti-mFc CM5 biosensor chip, then 200 nM of hAREG EGF domain-hFc flowed in mobile phase. Subclones with high affinity was expanded for RNA extraction. Cells were resuspended in TRIzol (Life Technologies), and total RNA was extracted following the instruction manual. The cDNA of subclones was synthesized using PrimeScript™ RT Master Mix (TaKaRa). The VH and VL genes of each antibody were amplified using a set of PCR primers specific to mouse antibody variable genes. PCR products were cloned into a PCR sequencing vector for sequencing.

Assay [6] addresses T5, mAREG-EGFd-DLLA-mFc (mouse, UniProt P31955 135-177, limits assumed).
T5 construct: Expressed in 293F cells; also called mAREG-DLLA
T5 chain: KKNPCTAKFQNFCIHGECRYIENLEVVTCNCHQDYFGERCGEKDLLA
Put plainly: competition ELISA; antibody titrated against 50 nM mAREG-DLLA on captured mEGFR-ECD. The procedure: Briefly, streptavidin (Sigma, 5 μg/mL) were coated in U-bottom 96-well plates, 100 nM biotinylated hEGFR-ECD or mEGFR-ECD in 100 μL per well were then captured onto the plates. Different antibodies at serial diluted concentrations were mixed with 5 nM hAREG-DLLA or 50 nM mAREG-DLLA protein and added to the ELISA plate. The binding of hAREG-DLLA to hEGFR-ECD or the binding of mAREG-DLLA to mEGFR-ECD was detected by HRP-conjugated mouse anti-mouse IgG Fc antibody (Thermo Fisher).
To facilitate the competition ELISA assay, we used the hAREG-EGFd-DLLA-mFc (hAREG-DLLA) or mAREG-EGFd-DLLA-mFc (mAREG-DLLA) as the ligands for binding to EGFR in the assay.

The target of assay [7] is T6, hAREG-EGFd-mFc (human; mouse, UniProt P15514 142-184).
T6 construct: Expressed in 293F cells; not shown: Fc fragment of mouse IgG2a
T6 chain: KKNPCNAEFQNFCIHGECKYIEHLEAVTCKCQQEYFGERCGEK
Description: SPR, Biacore T200; mAb captured on anti-human Fc chip, antigen in solution. The procedure: (§3) To evaluate affinities of different mouse hybridoma mAbs or their humanized and engineered variants, SPR measurement was performed using Biacore T200 instrument. mAbs were captured on anti-human Fc CM5 biosensor chip surface, hAREG-EGFd-mFc, mAREG-EGFd-mFc or hAREG-98aa (purchased from PeproTech, cat #100-55B) in serial dilutions were injected over antibody-bound surface, followed by a dissociation phase. Association rates (Ka) and dissociation rates (Kd) were calculated using the one-to-one Langmuir binding model (BIA Evaluation Software, GE Life Sciences). The equilibrium dissociation constant (KD) was calculated as the ratio kd/ka.
For orientation: SPR reads the build-up and loss of mass on a sensor chip optically.

For assay [8], the target named is T7, hAREG-98aa (human, UniProt P15514 101-198).
T7 construct: Bought protein
T7 sequence (looked up): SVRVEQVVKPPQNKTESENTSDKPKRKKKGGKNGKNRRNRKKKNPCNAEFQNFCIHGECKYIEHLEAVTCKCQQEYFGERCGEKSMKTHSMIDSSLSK
The description is as above. The procedure:
as §3

The target in assay [9] is T8, mAREG-EGFd-mFc (mouse, UniProt P31955 135-177).
T8 construct: also called EGF domain of mAREG (aa135-177) fused with mFc tag; not shown: mFc tag (Fc fragment of mouse IgG2a as for hAREG-EGFd-mFc)
T8 chain: T3 chain (looked up)
The assay is described as above. The protocol: as §3

In assay [10] the target is T9, hAREG-E149K variant (human, UniProt P15514 142-184).
T9 construct: also called E149K variant of hAREG-EGFd
T9 chain: T6 chain with E8K
Description: SPR (Biacore T200).

Assay [11] concerns the target T10, hAREG-H164N variant (human, UniProt P15514 142-184).
T10 construct: also called H164N variant of hAREG-EGFd
T10 chain: T6 chain with H23N
Description: SPR (Biacore T200).

In assay [12] the target is T4, C18 peptide. Put plainly: ELISA, biotinylated C18 peptide captured on streptavidin-coated plate, bound IgG detected with HRP anti-Fc antibody. The protocol:
(§4) Streptavidin (Sigma, […]) in phosphate buffered saline (PBS) was coated in U-bottom 96-well plate (Nunc, MaxiSorp™), 100 μL per well, at 4° C. overnight or 37° C. for 1 hour.
(§5) About […] of AREG protein or peptide at 100 μL per well were then captured onto the plates by incubation at 30° C. for 1 hour. For phage-scFv based ELISA, serial diluted phage-scFvs in PBS containing 2% nonfat milk were added to each well at 100 μL per well. Specific bound phage-scFvs were detected by adding HRP-conjugated mouse anti-M13 antibody (GE Healthcare) and incubated for 30 mins at 30° C. In between each incubation step, the ELISA plate was washed for 6 times with PBST solution (0.05% Tween20 containing PBS) at 300 µL per well. Followed by HRP-conjugated antibody incubation, the ELISA signal was developed by incubating with TMB substrate (Sigma) for 5-10 mins at 30° C. and then the reaction was stopped with 2M H₂SO₄ at 50 µL per well. The absorbance at 450 nm with the correction wavelength set at 630 nm was read by a microplate reader (Bio-Rad). For IgG based ELISA, the method was basically the same as described above for phage-scFvs except the bound antibodies were detected by HRP-conjugated mouse anti-Fc secondary antibody (Thermo Fisher Scientific).

Assay [13] concerns the target T2, mAREG: mouse AREG comprising residues …. Put plainly: ELISA, biotinylated mAREG captured on streptavidin-coated plate, bound IgG detected with HRP anti-Fc antibody. The procedure:
as §4, §5

Assay [14] concerns the target T1, hAREG: human AREG comprising residues …. Description: ELISA, biotinylated hAREG captured on streptavidin-coated plate, bound IgG detected with HRP anti-Fc antibody. The procedure: as §4, §5

B1: E1L2 (antibody, V domains shown)
VH: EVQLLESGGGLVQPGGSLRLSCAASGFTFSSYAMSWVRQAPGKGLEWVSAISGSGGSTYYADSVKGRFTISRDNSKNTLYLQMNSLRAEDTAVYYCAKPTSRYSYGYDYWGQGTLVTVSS
VL: QAGLTQPPSVSKGLRQTATLTCTGNSNNVGDQGAVWLQQHQGHPPRLLSYRNNNRPSGISERFSASRSGNTASLTITGLQPEDEADYYCSTWDSGLNSVVFGGGTQLTVL
notes: Human mAb from a phage scFv library; Phage-Abs were converted into human IgG1 or mouse IgG2a format
As for B1, the binding result in assay [1], in [2], in [3] and in assay [4] was “binds” throughout.

B2: 9C12 (antibody, V domains shown)
VH: EVKLVESGGGLVKPGGSLKLSCAASGFTFSSYPMSWVRQTPEKRLEWVATISTGGTYTYYPDSVKGRFTISRDNAKNTLYLQMSSLRSEDTAMYYCARQGPIYYGNYYYAMDYWGQGTSVTVSS
VL: DIVMTQPPLSLPVSLGDQASISCRSSQSLVHSDGNTYLHWYLQRPGQSPKLLIYKVSNRFSGVPDRFSGSGSGTDFTLKISRVEAEDLGVYFCSQSTHVPYTFGGGTKLEIK
notes: Mouse hybridoma mAb; made recombinantly as mIgG1, mIgG2a or chimeric human IgG1; also called m9C12
B2: the binding result in [5] is given as “binds”.

B3: hu9C12v4 (antibody, V domains shown)
VH: EVQLVESGGGLVKPGGSLRLSCAASGFTFSSYPMSWVRQAPEKGLEWVSTISTGGRYTYYPDSVKGRFTISRDNAKNSLYLQMNSLRAEDTAVYYCARQGPIYYGNYYYAMDYWGQGTTVTVSS
VL: DIVMTQSPLSLPVTLGDPASISCRSSQSLVDGEDGTYLNWFQQRPGQSPKLLIYKVSERFDGVPDRFSGSGSGTDFTLKISRVEAEDVGVYYCSQSTHVPYTFGGGTKVEIK
notes: Humanized 9C12 variant
One may read the Kd as the free concentration of one partner at which half of the binding sites on the other are occupied at equilibrium, for simple one-to-one binding. Low readings indicate higher affinity, high ones lower affinity. The koff is a measure of how fast the partners let go of each other. A word on the kon: it is the second-order rate constant of association. Low readings indicate slow association, high ones fast association. Regarding B3, the binding result in assay [6] is “binds”; in assay [10] it was “binds”; in assay [11], “no binding”. The Kd in [7] came to 1.04 nM; in assay [8], 0.462 nM; in assay [9], 9.01 nM. Besides, the koff in [7] turned out to be 0.00077 s⁻¹; in assay [8], 0.00372 s⁻¹. Moreover, the kon in [7] stood at 745000 M⁻¹ s⁻¹; in [8] it was 8.04e+06 M⁻¹ s⁻¹.

B4: P7 (antibody, V domains shown)
VH: EVQLVQSGGGVVQPGRSLRLSCAASGFIFSSHAMSWVRQAPGKGLEWVSAISGSGGSTYYADSVKGRFTISRDNSKNTLYLQMNSLRAEDTAVYYCAKVDTKFDPWGQGTLVTVSS
VL: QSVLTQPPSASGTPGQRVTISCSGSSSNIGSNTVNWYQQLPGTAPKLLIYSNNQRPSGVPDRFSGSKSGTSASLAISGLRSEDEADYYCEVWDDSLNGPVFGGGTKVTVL
notes: Human mAb from a phage scFv library, selected on the C18 peptide; Human IgG1 or mouse IgG2a format
What is called EC50 (read off the curve) is the concentration at which the effect is half-maximal. A higher EC50 (read off the curve) goes with weaker potency. Regarding B4, the binding result in assay [6] is reported as “binds”. The figures for the “EC50 (read off the curve)” value in [12], in [13] and in [14] were around 0.06 nM, around 0.9 nM and around 0.08 nM, respectively.

B5: E1H3L4 (antibody, V domains shown)
VH: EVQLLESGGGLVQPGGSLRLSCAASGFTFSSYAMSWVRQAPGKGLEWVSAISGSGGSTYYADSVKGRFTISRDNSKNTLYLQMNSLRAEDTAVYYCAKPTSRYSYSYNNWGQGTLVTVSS
VL: QAVLTQPPSASGTPGQRVTISCTGNSNNVGDQGAVWYQQLPGTAPKLLIYRNNNRPSGVPDRFSGSKSGTSASLAISGLQSEDEADYYCSTWDKNNKSVVFGGGTKLTVL
notes: Human IgG1 or mouse IgG2a format
For the molecule B5, in assay [6], the binding result is “binds”. Further, the “EC50 (read off the curve)” value is around 0.2 nM in assay [12], around 0.5 nM in assay [13] and around 0.06 nM in assay [14].

B6: 23H8 (antibody, V domains shown)
VH: EVQLQESGGGLVKPGGSLKLSCAASGFTFNSYAMSWVRQTPEKRLEWVATISTGGSHTYYPDSVKGRFTISRDNAKNTLYLQMSSLRSEDTAMYYCARHGYLLYDGYYEWYFDVWGAGTTVTVSS
VL: DIVLTQSPASLAVSLGQRATISCKASQSVDYDGHSFLNWYQQKPGQPPKLLIYAASNLESGLPARFSGSGSGTDFTLNIHPVEEEDAATYYCQQSTEDPPYTFGGGTKLEIK
notes: Mouse hybridoma mAb; made recombinantly as mIgG1, mIgG2a or chimeric human IgG1; also called m23H8
With B6, the binding result in [5] was “binds”.

These data come from patent US20230041071A1 (NATIONAL INSTITUTE OF BIOLOGICAL SCIENCES BEIJING, published 2023).
